The results in this text go back to patent US20090291083A1, “BARB4 TARGET, ANTIBODY DESIGNATED BARB4, BARB4 RELATED ANTIBODIES, AND METHODS OF MAKING AND USING SAME” (PATRYS LIMITED, priority 2008, published 2009).

The test system of this test is membrane preparations of tumor cell line BXPC-3. In words: Western blot on membrane preparations. The test is classed as binding, human. As to conditions: BXPC-3 membrane preparation; FIG. 6A. The procedure: For BARB4 target assays the established, human pancreatic adenocarcinoma cell line BXPC-3 was used. The adherent cells were grown to a confluence of about 90% in RPMI 1640 culture medium (PAA, Vienna) supplemented with 10% (V/V) FCS, 1% (V/V) glutamine and 1% (V/V) streptomycin/penicillin at 37° C. and a 7% CO2 atmosphere (HERA cell incubator, Heraeus, Hanau). Sterile tissue culture dishes 145/20 (greiner bio-one, Frickenhausen) were prepared with 1 ml cell suspension containing 2−3×10^6 cells/ml (suspension medium is equivalent to culture medium described above) and 50 ml supplemented RPMI 1640 medium. After three or four days the carcinoma cells could be harvested for membrane extract preparation. For this purpose, BXPC-3 cells were washed with phosphate-buffered saline (PBS; containing 0.137 M NaCl, 0.027 M KCl, 0.065 M Na2HPO4×2H2O, 0.015 M KH2PO4) and the adherent cells were scraped off the tissue culture dishes. The cell suspension was centrifuged (1500×g for 5 minutes at room temperature). The supernatant was removed and the pellet was washed again with PBS followed by a further centrifugation step (1500×g, 5 minutes at room temperature). Afterwards the supernatant was removed again. A single cell pellet includes carcinoma cells from 10 tissue culture dishes. It was immediately used for membrane extract preparation or stored at −20° C. […]

B1: BARB4: human IgG antibody produced by hybridoma DSMZ Deposit No. DSM ACC2876; heavy chain SEQ ID NOs:1, 3, 5, 7, light chain SEQ ID NO:9 (antibody, V domains shown)
VH: QVQLVESGGGVVQPGRSLRLSCAASGFRFTTHGMHWVRQAPGKGLEWVAVISYNGRNKYYADYVNGRFTISRDDSRDTVFLQMNSLRPEDTAMYYCAKVRGDGYGDYGYFDYWGHGTLVSVSS
VL: QSALTQPRSVSGSPGQSVTISCTGTYNYVSWYQQHPGKAPKLMIFDVSRRSSGVPDRFSGSKSGNTASLTISGLQAEDEADYYCCSYGGTYLYVFGTGTTVTVLGQ
Consider B1, for which the “binding on Western blots with membrane preparations” value is “binds to a membrane molecule with a relative molecular mass between 70 and 85 kD”.
